Among the data in the RNAGym collection of RNA variant scans (doi:10.7554/elife.90254) are self-cleavage values, retold here.

B1: LINE1-full (parent)
chain: UACGUAGGUGGUUUUCCCCUGAUAGUGCUAAGGGGGCCUGGAAGUUUGGACUGGGCAGAGCUCAACACAGCGUGGCAAAGUGGCUGUGGCUAGACUGCCUCUCUGGAUUCCUCGUCACUCAGCAGGGCAUCUCUGAGAGAAAUGCC

The variants in this data set derive from B1. Put plainly: self-cleavage, relative activity (ratio to wild type); higher = more cleavage; in vitro, sequencing; the parent is a self-cleaving ribozyme.
Turning to A117G U134C, the self-cleavage was 1.73.

Take A117U C123U: the self-cleavage amounted to 0.78.

Regarding C113U A138U, the self-cleavage stood at 1.21.

Consider C113U A138G, for which the self-cleavage was 1.54.

For the variant U108A U132A, the self-cleavage amounted to 1.24.

Regarding U108A U132C, the self-cleavage came to 1.65.

Regarding U108A A140G, the self-cleavage worked out at 1.58.

For the variant U109C U134C, the self-cleavage amounted to 1.21.

On to A117U A129C, for which the self-cleavage worked out at 1.23.

For A117U A129U, the self-cleavage came out at 1.78.

Regarding C110U C113A, the self-cleavage was 1.35.

Regarding C113A U143C, the self-cleavage was 0.76.

On to C118U U134A, for which the self-cleavage came out at 1.11.

Take U115C U132C: the self-cleavage came out at 1.84.

Consider U115C U132A, for which the self-cleavage was determined as 2.4.

For the variant U109A A129U, the self-cleavage turned out to be 2.02.

Consider U109A G122A, for which the self-cleavage stood at 1.63.

Turning to C111U U143C, the self-cleavage was found to be 1.13.

In the case of U115A C133U, the self-cleavage came out at 1.04.

For the variant A117U U143A, the self-cleavage was determined as 1.23.

For the variant U108C A117U, the self-cleavage amounted to 1.83.

As for A117G G139U, the self-cleavage is 2.05.

In the case of U112A A136U, the self-cleavage was determined as 1.67.

As for U108C A138U, the self-cleavage came out at 1.68.

Take U109C G135A: the self-cleavage is 1.71.

With A117U U119A, the self-cleavage worked out at 0.99.

On to U115G A129U, for which the self-cleavage stood at 1.34.

As to U108C A124U, the self-cleavage was 1.81.

U108C A124G: the self-cleavage is 1.47.

With A117G A136G, the self-cleavage is 1.66.

For A117G A136U, the self-cleavage worked out at 1.48.

As for U112A A140G, the self-cleavage came out at 1.46.

For the variant U115C A138U, the self-cleavage amounted to 1.64.

With U109C G125U, the self-cleavage was determined as 1.27.

Regarding C110U U112C, the self-cleavage was found to be 2.13.

For the variant G114A U119A, the self-cleavage worked out at 1.26.

Regarding C113A A121G, the self-cleavage turned out to be 1.25.

Regarding C110U G122A, the self-cleavage was determined as 1.09.

In the case of C116U, the self-cleavage was found to be 1.29.

As for C116A, the self-cleavage amounted to 1.16.

Consider U115A C131U, for which the self-cleavage was 1.65.

As for C116A A141U, the self-cleavage worked out at 1.47.

As for A117U A141G, the self-cleavage was found to be 1.1.

Consider A117U A141U, for which the self-cleavage came to 2.24.

On to U115C C145A, for which the self-cleavage was found to be 1.84.

For U108C G126A, the self-cleavage came out at 2.16.

For C118U A129G, the self-cleavage was 1.81.

Regarding C113U U134C, the self-cleavage is 0.97.

Consider C113U U134A, for which the self-cleavage amounted to 0.47.

For the variant A117G U130C, the self-cleavage was determined as 1.42.

For A117G U130A, the self-cleavage stood at 1.85.

On to U108C A136U, for which the self-cleavage is 1.93.

On to U108C G114A, for which the self-cleavage was 1.71.

In the case of U112C A124U, the self-cleavage was determined as 1.21.

For the variant U109G A141U, the self-cleavage was determined as 1.08.

For the variant U109G A141G, the self-cleavage was determined as 0.93.

For the variant U112C A121U, the self-cleavage worked out at 1.09.

Regarding U112C A121G, the self-cleavage is 1.71.

Regarding U109G A138U, the self-cleavage was determined as 1.07.

For the variant G114A A121U, the self-cleavage is 1.37.

U108A U112C: the self-cleavage was determined as 2.53.

As to U115C A129C, the self-cleavage came to 1.68.

Consider U115C A129U, for which the self-cleavage was 2.01.

As to U108C U112C, the self-cleavage was 1.74.

U108C U112A: the self-cleavage turned out to be 1.94.

Turning to A107U C113A, the self-cleavage was found to be 1.68.

For the variant C118U C145U, the self-cleavage was 0.86.

With U108A U134C, the self-cleavage is 1.19.

For A117G G122U, the self-cleavage amounted to 1.52.

With U109C U112A, the self-cleavage amounted to 2.11.

Turning to U109C U112C, the self-cleavage worked out at 1.69.

U108A U119C: the self-cleavage was 1.41.

In the case of U108A U119A, the self-cleavage came out at 0.96.

In the case of U112A A124U, the self-cleavage came to 1.61.

Turning to C110U A121U, the self-cleavage turned out to be 1.43.

For the variant A117G A138G, the self-cleavage is 1.59.

For the variant A117G A138U, the self-cleavage was determined as 1.13.

On to U115C C128U, for which the self-cleavage was 1.4.

U115C U143A: the self-cleavage amounted to 1.79.

In the case of U115C U143C, the self-cleavage was determined as 1.61.

As to U108G U134C, the self-cleavage was 2.7.

Consider C113A A142G, for which the self-cleavage is 0.47.

Take C110U A141G: the self-cleavage worked out at 1.4.

Regarding U115G U143C, the self-cleavage is 1.86.

Regarding A117G C133U, the self-cleavage worked out at 2.55.

U108C U119A: the self-cleavage turned out to be 1.53.

With U112C C116G, the self-cleavage amounted to 2.13.

For C116U U130C, the self-cleavage came to 0.89.

As for G114A A142U, the self-cleavage is 1.56.

For the variant G114A A142G, the self-cleavage came to 1.31.

Regarding C113U A121U, the self-cleavage was 1.53.

For U108A A138C, the self-cleavage was 1.32.

Take C110U A117G: the self-cleavage was found to be 2.38.

As for U109C U143C, the self-cleavage is 1.29.

Take G114U U134A: the self-cleavage worked out at 1.09.

Consider U109A U119C, for which the self-cleavage is 1.95.

In the case of U115C G125A, the self-cleavage is 1.82.

Regarding U115C G137A, the self-cleavage turned out to be 1.15.

Regarding U115C G137U, the self-cleavage is 2.16.

Turning to U115A G127A, the self-cleavage is 1.21.

For the variant U115C C116U, the self-cleavage was 1.18.

As for U108C U115A, the self-cleavage was found to be 1.86.

A117C A138G: the self-cleavage stood at 2.04.

For the variant A117C A138U, the self-cleavage was 2.44.

For U115C C123A, the self-cleavage was found to be 1.49.

As to C118U U143C, the self-cleavage worked out at 0.87.

Turning to U112A A129G, the self-cleavage stood at 0.98.

For the variant U112G A136G, the self-cleavage was determined as 2.3.

With U112G A136U, the self-cleavage came to 0.88.

Take A117C G144U: the self-cleavage was 1.13.

On to U115C U130A, for which the self-cleavage was 1.78.

Turning to U115C U130C, the self-cleavage was 2.03.

For C113U, the self-cleavage was 0.98.

On to C113G, for which the self-cleavage came out at 1.58.

Consider C113A, for which the self-cleavage came to 1.01.

Turning to C111U A138G, the self-cleavage came out at 2.01.

For A117C U119A, the self-cleavage amounted to 1.77.

Take U109C G127A: the self-cleavage came out at 1.49.

As for U109C G127U, the self-cleavage is 1.25.

Take A117G C123U: the self-cleavage turned out to be 1.48.

For U108C G137A, the self-cleavage is 0.89.

Regarding U115C U119A, the self-cleavage was 1.78.

For U115C U119G, the self-cleavage is 2.63.

With U112G C128U, the self-cleavage amounted to 2.54.

Regarding U108C A129U, the self-cleavage came to 1.89.

On to U108C A129G, for which the self-cleavage was determined as 1.57.

In the case of U108C A129C, the self-cleavage was 1.69.

Regarding U109C A141G, the self-cleavage was determined as 1.46.

For U108A G122U, the self-cleavage amounted to 0.97.

Regarding C113U A136G, the self-cleavage stood at 1.58.

On to A117G A124U, for which the self-cleavage is 1.25.

On to U115A C123A, for which the self-cleavage is 1.7.

For the variant C113G U143C, the self-cleavage was 1.36.

On to C110G A141G, for which the self-cleavage is 1.37.

Turning to U109A A138G, the self-cleavage was determined as 0.7.

Take U115C G135A: the self-cleavage came out at 2.23.

Turning to U112C A138C, the self-cleavage is 1.98.

Turning to U112C A138G, the self-cleavage was 1.58.

As for U108A G114A, the self-cleavage worked out at 1.09.

Turning to U112A C113U, the self-cleavage worked out at 1.6.

As for U108C A140U, the self-cleavage turned out to be 1.66.

In the case of C111U U115A, the self-cleavage is 1.77.

In the case of C118U A121G, the self-cleavage turned out to be 1.58.

In the case of U109A G125A, the self-cleavage is 1.34.

For C118U U132C, the self-cleavage was found to be 1.81.

For the variant U109A U115A, the self-cleavage was found to be 1.47.

With U109A U115C, the self-cleavage was 1.43.

Regarding U108C, the self-cleavage was found to be 1.64.

As for U108G, the self-cleavage came out at 1.5.

For U108A, the self-cleavage worked out at 1.24.

For the variant U109A U112A, the self-cleavage was 1.35.

On to U109A U112C, for which the self-cleavage is 1.08.

For U108C C118U, the self-cleavage worked out at 2.01.

As to U115A U119C, the self-cleavage turned out to be 2.02.

In the case of U115C A142U, the self-cleavage turned out to be 1.56.

On to U115C A142C, for which the self-cleavage came out at 2.05.

With U109A A140G, the self-cleavage came to 0.96.

As for U108A U130C, the self-cleavage was determined as 1.51.

As for U109A A136G, the self-cleavage worked out at 1.4.

As to U109A A136U, the self-cleavage is 2.61.

For U109C C146U, the self-cleavage was found to be 1.53.

On to C113A A141G, for which the self-cleavage was 1.23.

Turning to C118U A141G, the self-cleavage is 1.8.

In the case of C118U A141U, the self-cleavage came out at 1.6.

Take U108C U143A: the self-cleavage worked out at 0.26.

For U109G U143C, the self-cleavage was 0.87.

Turning to U112A G144A, the self-cleavage is 1.32.
